In the domain aggregation screens of Martell et al. (2025):

Test: soluble fraction after stress (log2 fold change); higher = more stays soluble; pooled small domains, quantitative proteomics
Conditions: stress: 50 degC
Outline: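 The measure of aggregation propensity here is the base-two logarithm of the fold change in the soluble amount of each protein after stress. A higher value means more of that protein stays in solution. Stress was applied at 50°C to pooled libraries of small protein domains, read out by high-throughput quantitative proteomics.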

Sequence | soluble fraction (log2)
HMKKVSVKPILELRAAGISMRKIETLMHVSRHTISAIYKAADAYSISWDNVKDFDEDKIYEMLFPPTP | -1.94
HMDLATQHAAKVNAAILAARRFEREGSWRQVAAKYSEALQLMPGNEQASRGYQQAMAMLDERD | 0.0786
HMYALGIPVSQYRRTTQVLGHESSYPIAYEDEKQDDDFYLFKFPNIDEYDFKKIVILLKQNGITT | -1.61
HMGGPAGPDFTYTGDDLTRIDYDDGSYKVFTYDAGKLSQIDFTSGGTTTRKTFVYSGDTLIRVDQTI | -0.44
HMEERDMKGSISDLVERYADQLTDEQLEEIVLGIKNGLLEEDVKSYFFLPAEDMRRIRTALEQVR | 0.00866
HMVRSLESESVYDRQRAYEIAYQLRTEERPYSFIATQLNKAGLRPQKAARYEWYSVQELLRSA | -0.956
HMKYKKYKLLKDLPTFKAGQLAYISKTGNLIAGTPENQKTTETGLIIMIYHETTLKKFPNILTEWFEEIE | -2.71
HMNEFAYLIKISPEHNNNRYYRMVAEGDNFRIEMGRIGASPVQMKRPMYLWNETYQKKLQEGYTDRTSYTS | -1.92
HMAAGELSGEALIALIERHPMALSALATTFGHSESDLRAFVEPLARQGRLRLFESQGTLFVGGIG | -0.022
HMKQAVESAEAIFEEIARIKKLSLVKSEAEEIARKTGLQKFTIASQLLKNQHAYEMDESEIASLWDKKI | 0.0237
HMNKETYIDALERKLWDRLDPDQLRDIISYYKDYFAMEAAKGISEEETIRKLGDPALLAKSILAAE | -0.335
HMEYSKSIKRLREDKNLTVEELAKRLSLDVEEIQKAEDGEDVDQKTLEAIARYFGVQYDSLVEGTAKSK | 0.0998
HMNQDQDLSRIKGIGPEMVDRLHAQGVETLEQIAAMQMEQLKKLDQQISGNGKAVREQWAEQAKQLLTT | 0.0638
HMNLDPIKRKSEILSLFESHKNVKFNEIFFEKVNKEFTVLTFLIILELVKDNIIDFSQTQEGLIEFFTR | -0.115
HMSEITQTLSMIGKEVTLEIPDEKDKTKTTEVKGIVTEASFKDGTGKVKVNGEYYSIAYITSIRDT | 0.335
HMIERLVEFVHTLRHSGVRVSMAEAMDAAEALRHTPITERQIFKTALQSVLVKEHQDIPAFDAAFERFFL | -1.54

Sequence | soluble fraction (log2)
HMAGTDLSERESEIAMLLLKGYPYKLIASRLYISESTVKSHVQNIYGKLGIHSRTELIEQFSAS | -0.558
HMETPDLTQLNPILDEYRGQKGAVIPVLQKAQKIYGFLPPEVLRRIAAGMRVPLSKIYGVATFYSQFY | 0.0579
HMTELVIPDYFSKALAKNKKAKQVFEAFAYSHRKEYLQWITEAKTEETRNKRMATAIEWIAEGKGRNWKYA | -1.69
HMAPRASDALTERELDVLRVVADGASVAEAAEMLVVSRETVKKHLGNIYAKLGVHSKMQAVALLREEGV | -0.147
HMALHDTLSYEEYLDLGLNGKADSAEKRELVAHALHLGRPNAKTLYKRLNMLQLNRKDVAALLEQ | 0.0249
HMLALVREQIERNVSNPTDEDIRKIRHDVMEVITRAGADAATVDIAIEIDSQKNILRAIATGATEL | -0.0114
HMNPETLTNGSVVKMSKANLSDELIIDMINNSPARFDLSSGALRSLEGEGVSKAVIESMKRATSG | 0.191
HMEEDPVISQAQRQALFKLAHDHFGQEEGNKVILRLIGEHGLRSTTNMTASVYKTVTDALIQVIESMVEG | -0.0318
HMQTAAANPSPESILQAREAAGLSQSEAGALIYSGLRSWQHWEWGTRRMHPGLFELFLKKTGQI | -1.7
HMKRRSLQVGDIVQVRSLNVKGEVVSIGKNEVVVAVGRLQMRAGFDDLDFKERPKEEREVESV | -0.143
HMSVPNVVGRDQVEASSLLESAGFKVSVKQSYSDSVEQGKVISQSPSGSTTVSPGSTVTITVSQ | 0.122
HMTDPVLYEERDDIAIITINRPEKKNTLTDAVIQGIADGIDAATKSADVVAVVLRGAGDTLTAGYDLTA | -0.132
HMTDTSFPRLGAPEEELLSFLAKWEIDAEDAHYTKFSLYYQSTGKMMRDWKATWRAWKERQSELNAQR | -1.68
HMSDYLGSLSHEEKMIFNHFDEDSSTIENMAKKTELKPELISQIFLNLELRGFLRQTEGGLYEKI | -0.000348
HMLTTIRKATVNDKTRIMEIYAYARQFMAEHGNPNQWKNNNPSEETIDNDIAKQEMYVIETDGEVHAVFY | -1.44
